This series is described as follows: amyloid nucleation score (Sup35N fusion, yeast selection) (log enrichment); library NNK1; higher = more nucleation; inactive = no reads after selection. In short, it runs like this: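 Using DiMSum, nucleation scores were taken as the log enrichment of output over input reads, centred on the mode score of non-aggregating sequences. The input and output reads came from Illumina sequencing of plasmid inserts, with sequences under 100 input reads excluded. The yeast were psi-negative, expressed Sup35N fused to peptides of 20 random codons, were induced with 100 μM copper sulfate for 24 hours, and were grown 7 days at 30°C on medium lacking adenine and uracil.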

± gives the uncertainty stated by the source.

Take YFSQPMLLRSSGRAVNSRMR: the amyloid nucleation score is -1.66 ± 2.4. SELWPRVDYCLATYSINSYA showed an amyloid nucleation score of -0.234 ± 0.3.

Take DHTHLTTQNDICLMVSFTVE: the amyloid nucleation score was found to be 2.7 ± 0.096. In the case of CILWDWMYEGMKTSEGIFDR it was 0.118 ± 0.71; in that of RMSCAHDDHPIYWSCT, -0.622 ± 0.98.

The substance LYEFRGGTHVGSDFSDVVFV registered an amyloid nucleation score of 1.05 ± 0.47.

On to PITFS, for which the amyloid nucleation score was 0.448 ± 0.68. As to LFFVSRG, the amyloid nucleation score is -0.465 ± 1.6.

In turn, VTPGRLQRLVM displayed an amyloid nucleation score of -1.39 ± 0.58.

In the case of RNWYKW, the amyloid nucleation score entry is “inactive”. SSINMVVSPK registered an amyloid nucleation score of 1.09 ± 0.3. Take YCGGRKG: the amyloid nucleation score was found to be 0.144 ± 0.34.

Substance VVSLNE yielded an amyloid nucleation score of 0.915 ± 0.9.

The substance IRPLIFVIGHN showed an amyloid nucleation score of 0.794 ± 0.5. For YLVWCIESITLGFMGELGAR, the amyloid nucleation score was found to be 0.199 ± 0.57. GIGHELFSNWVMEQLA yielded an amyloid nucleation score of -0.23 ± 0.35. Then VMLFSDVFWALMLHFYDPAF, with -1.01 ± 0.61. INQLRITWLD: the amyloid nucleation score is 2.46 ± 0.12. Take VCMWRFLVGRT: the amyloid nucleation score is -0.238 ± 0.9. Take VGDCSSVFCVTSFDWVSFYV: the amyloid nucleation score was found to be 2.89 ± 0.098. As for PVHNRVINRILGSSLEVLEN, the amyloid nucleation score was -0.123 ± 0.31. In turn, TVNCFDYSVSGVSSNRV had an amyloid nucleation score of 0.882 ± 0.66.

Regarding LFIVSNFLWLIPKWTNSAKF, the amyloid nucleation score is -1.66 ± 1.4.

The substance VMSFILYLSMLCGARDSQRH returned an amyloid nucleation score of 2.89 ± 0.14. CPCWLLMLFPCISYRRNLIV: the amyloid nucleation score is -0.605 ± 0.46.

VDLGRSKWCLTMYESYENGR: the amyloid nucleation score is -0.127 ± 0.3.

Substance MASLDGFLFNCWLRRLGFRA yielded an amyloid nucleation score of -0.397 ± 0.4. In the case of YLSRGNY it was -0.245 ± 0.79; in that of GVEVAFDVLEETRQWPEYYR, 1.49 ± 0.49; in that of VFLKHAPRGI, -0.077 ± 1.7. On to ESNVWICAPPTDPWAIQTLR, for which the amyloid nucleation score is -0.149 ± 0.51. Turning to FWDVVKLNGGSGMALFYAGL, the amyloid nucleation score was determined as 0.145 ± 1. In the case of VGDKQFHTKYMVA it was 0.031 ± 1.1; in that of WYNGNKSHGRRVPGVQPRAL, -0.046 ± 0.46. For LFYFTRLFINRYMNM, the amyloid nucleation score was -0.316 ± 0.5. In the case of NDYNWKYGFLRWCVLYEVM it was 0.117 ± 0.4. The substance VGVVCLKFLP came in with an amyloid nucleation score of -0.064 ± 0.43. HWWVGKRLLLHPWVA gave an amyloid nucleation score of 0.224 ± 0.31.

Take VVTVLGVGLDSSSSGWWFVA: the amyloid nucleation score is 0.168 ± 0.46. In turn, VFYACSTPRPSQNASVDFRL registered an amyloid nucleation score of -0.035 ± 0.61. On to NWICKRVIYEYFSTQIYSSG, for which the amyloid nucleation score is -0.133 ± 0.55.

Take KVSYCSSGYLTSLTWRFLLI: the amyloid nucleation score came out at 0.888 ± 0.28. In the case of CGQLACVEPNWLSIKVMFRN it was “inactive”.

Regarding EVVQMVFIFFRCSLVDGKEW, the amyloid nucleation score was found to be 0.405 ± 0.72. Turning to LIRLMSQ, the amyloid nucleation score amounted to 1.83 ± 0.24. CSEISCPLTKHRCGTLVRVL returned an amyloid nucleation score of -0.761 ± 1.2. Consider YGYAAYVDMRSGL, for which the amyloid nucleation score was -0.257 ± 0.33. In the case of ISGTLGSRVMGLSAWVRVSR, the amyloid nucleation score is -0.114 ± 0.38. As for YLPYVNLAG, the amyloid nucleation score was -1.07 ± 2.4. For WFSINIGKMGARVLSVGQDG, the amyloid nucleation score result was “inactive”.

VYAMGIHWRFCAKKRIMSG had an amyloid nucleation score of -0.802 ± 1.7. Regarding LPYTHFGDDLIGITQDGLRV, the amyloid nucleation score was -0.035 ± 0.43. Then WHSISYF, with “inactive”. In turn, FRFELYRLPVSDSLMKDLQL showed an amyloid nucleation score of 0.998 ± 0.58. As to FSLVATGSYITLDSVLMDVL, the amyloid nucleation score amounted to 0.728 ± 0.44. For the substance HKCVLELFSLIFLGGYFFLR, the amyloid nucleation score stood at 0.041 ± 0.45. The substance YSHYNGTVAYRWEPQ displayed an amyloid nucleation score of 0.901 ± 0.47.

Take IGLRWYSFLLRMSGLSSTGA: the amyloid nucleation score is -0.23 ± 0.24. The substance VTFLIMGWLRDRRV gave an amyloid nucleation score of -0.563 ± 0.39. In the case of LMPLLS it was 0.025 ± 0.36; in that of INSNWASLRDRYARIASRSS, -0.372 ± 0.47; in that of AWLLLEDWFVNRVILICGAK, 0.027 ± 0.27. For the substance DVANRVVSSFLIC, the amyloid nucleation score is -0.525 ± 0.45. Then FLSICVDSVKFVFGGVWTSQ, with -0.882 ± 0.53; and YRVFASNCEFYSRCKYLYLL, with 0.029 ± 1.6. Turning to SKRLACSYSSMFVKCSEYKL, the amyloid nucleation score came out at 0.413 ± 0.97. In the case of NCCCEAKTWRLIDCIITIVI it was 0.711 ± 0.13; in that of VKRKGAKISWQGAILRASVV, -0.963 ± 0.7; in that of TSYQA, -0.115 ± 0.22. In the case of QGLLPDIYVALSLCGVPGTD it was -0.262 ± 0.59. Then VVDSTFWEVIHRRWASAMLD, with -0.657 ± 0.68; and FKGHRHY, with 0.318 ± 0.55; and CSLIIFAYRRLEFMILFYFD, with -0.26 ± 0.49. Substance NVFILMCITKRFCNWLNISS displayed an amyloid nucleation score of -0.773 ± 1.5. WYRGMHLVARRFMTYLARKY showed an amyloid nucleation score of 1.32 ± 0.65. Turning to VAVLGNFL, the amyloid nucleation score entry is “inactive”. In the case of VIGDLSYRSYI, the amyloid nucleation score was determined as 0.44 ± 0.4. The substance YKTYMFYCTSFQSGPCSRLI registered an amyloid nucleation score of -0.634 ± 0.35.

Substance SKCRL returned an amyloid nucleation score of 1.92 ± 0.62.

As to FNVRC, the amyloid nucleation score stood at 0.496 ± 0.36. Consider GGLKQFTGSRTHGLWSNGQM, for which the amyloid nucleation score was -0.337 ± 0.89.

Turning to NVTSAR, the amyloid nucleation score was found to be 0.185 ± 1.1.

For the substance SCRSRTYERCLSLVNMEREG, the amyloid nucleation score is 3.27 ± 0.13.

Consider RFWVYGKGILMVLGAFFCL, for which the amyloid nucleation score turned out to be 0.07 ± 0.56. The substance MAGLL yielded an amyloid nucleation score of -0.546 ± 1.1. With FASKRWLWSVEQLSRLSNGT, the amyloid nucleation score is -0.087 ± 0.21.

As to LDIVCLPKFVVWTDTV, the amyloid nucleation score is -0.301 ± 0.56. In the case of RYRRATTQFAKGHCRSLSFK it was 0.91 ± 0.47; in that of LVKYKKV, -0.088 ± 0.43.

The substance RGSPFGVSM showed an amyloid nucleation score of 5.4 ± 0.091. Turning to TCGSYV, the amyloid nucleation score turned out to be 0.215 ± 0.42. TTFFFDF: the amyloid nucleation score was found to be 2.59 ± 0.18. As for APLEFWRGTVVAWLWYLCPF, the amyloid nucleation score stood at 0.303 ± 0.41. The substance IATYCYLFSCWFIYVLT displayed an amyloid nucleation score of 0.992 ± 0.84.

LWYTALINTNACCVIRQDFR registered an amyloid nucleation score of 1.04 ± 0.8. Consider YNLDDILPLHIEGRFNRDIA, for which the amyloid nucleation score result was “inactive”. For GSSFVI, the amyloid nucleation score entry was “inactive”.

HDLVKVFSFCVWP gave an amyloid nucleation score of 3.02 ± 0.19. For QSGVNNTVLVCIVQSFSSLM, the amyloid nucleation score worked out at 5.5 ± 0.082.

The substance RYRPSVCRS gave an amyloid nucleation score of 0.872 ± 0.54. For the substance LSTKRYDLHSTPRRPISPSR, the amyloid nucleation score was found to be 1.08 ± 0.41. NSREYDRATGNGGTEGKSVT returned an amyloid nucleation score of -0.45 ± 1.1.

As to SSVGKLGDPWL, the amyloid nucleation score was -1.15 ± 0.53. QDKAVIANNRWTKMCGRLDC: the amyloid nucleation score turned out to be 1 ± 0.59. With VLVFIFDSTVSI, the amyloid nucleation score turned out to be 8.236 ± 0.046. In the case of KNFWKGVLYSIRCHNQWNVG it was 5.41 ± 0.092. DCGDSKRYVRITMFYFNRII: the amyloid nucleation score is -0.262 ± 0.34.

For WNYTLGRCRTLGYAVAVLDI, the amyloid nucleation score was -0.389 ± 1.

On to NFNCLVTDAFYFRGWKCLDR, for which the amyloid nucleation score is 4.9 ± 0.12. The substance IWGDKIHGFHGVIMMQSGMV came in with an amyloid nucleation score of -0.762 ± 0.71. For WPPMQGLSLSSLSSINHPHT, the amyloid nucleation score came to 0.76 ± 1.1. SKFVSKNCWTARGAL had an amyloid nucleation score of -0.166 ± 0.48.

In turn, HLLWETSMQRLMSHIFTSSR showed an amyloid nucleation score of 0.022 ± 0.43. For GFPTPEPEDNVARSVRWIYS, the amyloid nucleation score is -1.47 ± 1. Then MWWCGSHSFSFYFRLRSDWR, with 0.829 ± 1; and NHTGYTWMNVR, with -0.099 ± 0.26. Take TKIGKYKFAYCNAIAGARVE: the amyloid nucleation score turned out to be 0.766 ± 0.87.

For GFFVQNRTWQIH, the amyloid nucleation score is -0.858 ± 0.45. SVTEVFYGKSVFLTFVFGIF: the amyloid nucleation score came out at 0.292 ± 0.31. As to NLFLIDMNVWRLVVGGRQDW, the amyloid nucleation score was determined as 4.63 ± 0.073. With RLISTGADCEVRISHIRSRN, the amyloid nucleation score came to 0.594 ± 0.48. EDEYQDPTTGVIHVVMGTCV: the amyloid nucleation score is 0.044 ± 1.1. Then RQIVEELTSGIVGSLEV, with -0.48 ± 0.57.

Turning to SKIGDEM, the amyloid nucleation score is -1.29 ± 1.2. In the case of FTLLTAPGMATHLRTGMRSR it was 0.51 ± 0.56; in that of LGWSGMVGFG, 0.08 ± 0.81. For the substance KDICY, the amyloid nucleation score was determined as 0.864 ± 0.51.

As for SHGKVVIFSPSHCAGFFSCS, the amyloid nucleation score turned out to be 7.699 ± 0.061.

The substance RAELTSTTISTASVFGCGIM displayed an amyloid nucleation score of 5.17 ± 0.07. Take LISGVS: the amyloid nucleation score entry is “inactive”. Take GFMERLASIYTFFWGVDSK: the amyloid nucleation score was -0.339 ± 1.2.

For TISILCQYQVMGTIFIYVVQ, the amyloid nucleation score was 1.66 ± 0.13. Then VDHTSMWCGFLYTSCLGPDF, with -0.758 ± 1.2. With HGKYQGTDRYAETGSISGGT, the amyloid nucleation score is -0.395 ± 0.37. As to SSMGPFLSV, the amyloid nucleation score came to 0.014 ± 0.48. In turn, SGTAVSIVAWYTMTQLDHAG yielded an amyloid nucleation score of -0.001 ± 0.37. Then VNSIESCANFH, with -0.198 ± 1.7. As to DVMAVCGIGRKYLIWYSCVR, the amyloid nucleation score was -1.54 ± 0.79. The substance ALCFCWNWLLCTDKGL came in with an amyloid nucleation score of 6.056 ± 0.048.

For SHCCLDQLGVSDKAR, the amyloid nucleation score is 0.142 ± 0.62.

IFSCGIGHWV: the amyloid nucleation score worked out at 0.462 ± 0.49. The substance LAHVFWRIDWMDKWGYNGDA registered an amyloid nucleation score of 0.992 ± 0.26.
